Earlier results on six substances are cited in US10023622B2, “Method of immunization for reducing toxic damaged caused by oligomeric form of the amyloid-beta protein with stable amyloid beta monomers and oligomers” (ALZINOVA AB, priority 2008, dated 2018).

For the series the following is noted: oxidized derivatives (cystines).
In the case of “F19C/A30C: previously published Aβ peptide disulphide mutant (Wetzel et al.)”, the “Fibrillation of oxidized disulphide mutants” value (“Fibrillation” below) is recorded as “all fibrillate”.

In the case of “F19C/I32C: previously published Aβ peptide disulphide mutant (Wetzel et al.)”, the “Fibrillation” value is “all fibrillate”.

Take “F19C/L34C: previously published Aβ peptide disulphide mutant (Wetzel et al.)”: the “Fibrillation” value was “all fibrillate”.

Turning to “L17C/L34C: previously published Aβ peptide disulfide mutant (Shivaprasad and Wetzel)”, the “Fibrillation” value is reported as “all fibrillate”.

Take “L17C/M35C: previously published Aβ peptide disulfide mutant (Shivaprasad and Wetzel)”: the “Fibrillation” value is on record as “all fibrillate”.

As for “V18C/L34C: previously published Aβ peptide disulphide mutant (Wetzel et al.)”, the “Fibrillation” value was “all fibrillate”.
